According to patent US20210040177A1 (IMUNEXUS, published 2021):
Like-named read-outs stand apart in the source and are kept apart here.

T1: B7-1-Fc (R&D Systems Cat #140-B1) (UniProt P33681 35-242)
T1 construct: Bought reagent; also called CD80; not shown: Fc part of the bought fusion
T1 sequence (looked up): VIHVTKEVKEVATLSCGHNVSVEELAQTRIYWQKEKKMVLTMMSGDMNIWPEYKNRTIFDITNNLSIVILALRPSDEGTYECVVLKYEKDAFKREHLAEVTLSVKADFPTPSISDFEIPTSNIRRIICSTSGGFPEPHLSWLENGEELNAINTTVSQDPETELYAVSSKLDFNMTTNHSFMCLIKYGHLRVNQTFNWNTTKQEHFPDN


How the values were obtained:
[1] = target: T1, B7-1-Fc (R&D Systems Cat #140-B1); experiment: BLItz bio-layer interferometry; D1.3 IgG held on immobilised lysozyme, B7-1-Fc added at Point 1, buffer at Point 2
Text: At Point 2, B7-1-Fc was replaced with Buffer. […] At Point 2, B7-1-Fc was replaced with Buffer.

[2] = target: T1, B7-1-Fc (R&D Systems Cat #140-B1); experiment: SPR (Biacore X100); molecule captured on biotin-lysozyme, B7-1-Fc as analyte
[3] = target: T1, B7-1-Fc (R&D Systems Cat #140-B1); experiment: as above; remark: listed apart in the source
Experimental: The theoretical maximum binding signal for the analyte (Rmax) was calculated based on the amount of captured IgG-VLD protein, accounting for the molecular weight of the analyte and ligand.

| Binder | binding result [1] | Kd [2] [nM] | koff [2] [s⁻¹] | kon [2] [M⁻¹ s⁻¹] | Kd [3] [nM] | koff [3] [s⁻¹] | kon [3] [M⁻¹ s⁻¹] |
| --- | --- | --- | --- | --- | --- | --- | --- |
| D1.3 Fab-VLDx1 (LC) (bispecific antibody, also called D1.3 VLDx1 (LC); D1.3 Fab-VLDx1 (CL)) heavy: EVKLQESGPGLVAPSQSLSITCTVSGFSLTGYGVNWVRQPPGKGLEWLGMIWGDGNTDYNSALKSRLSISKDNSKSQVFLKMNSLHTDDTARYYCARERDYRLDYWGQGTTVTVSSASTKGPSVFPLAPSSKSTSGGTAALGCLVKDYFPEPVTVSWNSGALTSGVHTFPAVLQSSGLYSLSSVVTVPSSSLGTQTYICNVNHKPSNTKVDKRVEPKSCAAAGLGGHHHHHHGAAEQKLISEEDL light: DIELTQSPASLSASVGETVTITCRASGNIHNYLAWYQQKQGKSPQLLVYYTTTLADGVPSRFSGSGSGTQYSLKINSLQPEDFGSYYCQHFWSTPRTFGGGTKLELKRTVAAPSVFIFPPSDEQLKSGTASVVCLLNNFYPREAKVQWKVDNALQSGNSQESVTEQDSKDSTYSLSSTLTLSKADYEKHKVYACEVTHQGLSSPVTKSFNRGECSGGGGSGGGGSGGGGSGGGGSKAMHVAQPAVVLASSRGIASFVCEYASPGKYTEVRVTVLRQADSQVTEVCAATYMTGNELTFLDDSICTGTSSGNQVNLTIQGLRAMDTGLYICKVELMYPPPYYLGIGNGTQIYVIDPEPSPDSN |  | 13.6 | 0.00296 | 218000 |  |  |  |
| D1.3 Fab-VLDx2 (HC+LC) (bispecific antibody, also called D1.3 VLDx2 (HC+LC); D1.3 Fab-VLDx2 (LC+HC)) heavy: EVKLQESGPGLVAPSQSLSITCTVSGFSLTGYGVNWVRQPPGKGLEWLGMIWGDGNTDYNSALKSRLSISKDNSKSQVFLKMNSLHTDDTARYYCARERDYRLDYWGQGTTVTVSSASTKGPSVFPLAPSSKSTSGGTAALGCLVKDYFPEPVTVSWNSGALTSGVHTFPAVLQSSGLYSLSSVVTVPSSSLGTQTYICNVNHKPSNTKVDKKVEPKSCSGGGGSGGGGSGGGGSGGGGSKAMHVAQPAVVLASSRGIASFVCEYASPGKYTEVRVTVLRQADSQVTEVCAATYMTGNELTFLDDSICTGTSSGNQVNLTIQGLRAMDTGLYICKVELMYPPPYYLGIGNGTQIYVIDPEPSPDSN light: DIELTQSPASLSASVGETVTITCRASGNIHNYLAWYQQKQGKSPQLLVYYTTTLADGVPSRFSGSGSGTQYSLKINSLQPEDFGSYYCQHFWSTPRTFGGGTKLELKRTVAAPSVFIFPPSDEQLKSGTASVVCLLNNFYPREAKVQWKVDNALQSGNSQESVTEQDSKDSTYSLSSTLTLSKADYEKHKVYACEVTHQGLSSPVTKSFNRGECSGGGGSGGGGSGGGGSGGGGSKAMHVAQPAVVLASSRGIASFVCEYASPGKYTEVRVTVLRQADSQVTEVCAATYMTGNELTFLDDSICTGTSSGNQVNLTIQGLRAMDTGLYICKVELMYPPPYYLGIGNGTQIYVIDPEPSPDSN |  | 9.73 | 0.00433 | 445000 |  |  |  |
| D1.3 Fab-VLDx1 (HC) (bispecific antibody) heavy: EVKLQESGPGLVAPSQSLSITCTVSGFSLTGYGVNWVRQPPGKGLEWLGMIWGDGNTDYNSALKSRLSISKDNSKSQVFLKMNSLHTDDTARYYCARERDYRLDYWGQGTTVTVSSASTKGPSVFPLAPSSKSTSGGTAALGCLVKDYFPEPVTVSWNSGALTSGVHTFPAVLQSSGLYSLSSVVTVPSSSLGTQTYICNVNHKPSNTKVDKKVEPKSCSGGGGSGGGGSGGGGSGGGGSKAMHVAQPAVVLASSRGIASFVCEYASPGKYTEVRVTVLRQADSQVTEVCAATYMTGNELTFLDDSICTGTSSGNQVNLTIQGLRAMDTGLYICKVELMYPPPYYLGIGNGTQIYVIDPEPSPDSN light: DIELTQSPASLSASVGETVTITCRASGNIHNYLAWYQQKQGKSPQLLVYYTTTLADGVPSRFSGSGSGTQYSLKINSLQPEDFGSYYCQHFWSTPRTFGGGTKLELKRTVAAPSVFIFPPSDEQLKSGTASVVCLLNNFYPREAKVQWKVDNALQSGNSQESVTEQDSKDSTYSLSSTLTLSKADYEKHKVYACEVTHQGLSSPVTKSFNRGEC |  | 5.41 | 0.00285 | 526000 |  |  |  |

Now from value to binder:

| binding result [1] | Kd [2] [nM] | koff [2] [s⁻¹] | kon [2] [M⁻¹ s⁻¹] | Kd [3] [nM] | koff [3] [s⁻¹] | kon [3] [M⁻¹ s⁻¹] | Binder |
| --- | --- | --- | --- | --- | --- | --- | --- |
| no binding |  |  |  |  |  |  | D1.3 anti-lysozyme antibody [D1.3 IgG] (antibody, V domains shown, Full length IgG1 kappa, expressed in Expi293 cells; parent of all IgG-VLD fusions; also called D1.3 IgG alone (full length); D1.3 antibody) VH: EVKLQESGPGLVAPSQSLSITCTVSGFSLTGYGVNWVRQPPGKGLEWLGMIWGDGNTDYNSALKSRLSISKDNSKSQVFLKMNSLHTDDTARYYCARERDYRLDYWGQGTTVTVSS VL: DIELTQSPASLSASVGETVTITCRASGNIHNYLAWYQQKQGKSPQLLVYYTTTLADGVPSRFSGSGSGTQYSLKINSLQPEDFGSYYCQHFWSTPRTFGGGTKLELKR |
|  |  |  |  | 5.47 | 0.0029 | 530000 | D1.3 IgG-VLDx4 (HC+LC) (bispecific antibody, also called IgG Imx4 (HC+LC); IgG Imx4 (HCLC)) heavy: not shown light: DIELTQSPASLSASVGETVTITCRASGNIHNYLAWYQQKQGKSPQLLVYYTTTLADGVPSRFSGSGSGTQYSLKINSLQPEDFGSYYCQHFWSTPRTFGGGTKLELKRTVAAPSVFIFPPSDEQLKSGTASVVCLLNNFYPREAKVQWKVDNALQSGNSQESVTEQDSKDSTYSLSSTLTLSKADYEKHKVYACEVTHQGLSSPVTKSFNRGECSGGGGSGGGGSGGGGSGGGGSKAMHVAQPAVVLASSRGIASFVCEYASPGKYTEVRVTVLRQADSQVTEVCAATYMTGNELTFLDDSICTGTSSGNQVNLTIQGLRAMDTGLYICKVELMYPPPYYLGIGNGTQIYVIDPEPSPDSN |
|  |  |  |  | 24.5 | 0.004 | 163000 | D1.3 IgG-VLDx2 (LC) (bispecific antibody, unfused heavy chain; also called D1.3 IgG-VDLx2 (LC); bi-specific-D1.3 IgG-VLDx2 (LC)) heavy: not shown light: DIELTQSPASLSASVGETVTITCRASGNIHNYLAWYQQKQGKSPQLLVYYTTTLADGVPSRFSGSGSGTQYSLKINSLQPEDFGSYYCQHFWSTPRTFGGGTKLELKRTVAAPSVFIFPPSDEQLKSGTASVVCLLNNFYPREAKVQWKVDNALQSGNSQESVTEQDSKDSTYSLSSTLTLSKADYEKHKVYACEVTHQGLSSPVTKSFNRGECSGGGGSGGGGSGGGGSGGGGSKAMHVAQPAVVLASSRGIASFVCEYASPGKYTEVRVTVLRQADSQVTEVCAATYMTGNELTFLDDSICTGTSSGNQVNLTIQGLRAMDTGLYICKVELMYPPPYYLGIGNGTQIYVIDPEPSPDSN |
|  |  |  |  | 5.44 | 0.0028 | 516000 | D1.3 IgG-VLDx2 (HC) (bispecific antibody, unfused kappa light chain; also called bi-specific-D1.3 IgG-VLDx2 (HC)) heavy: not shown light: DIELTQSPASLSASVGETVTITCRASGNIHNYLAWYQQKQGKSPQLLVYYTTTLADGVPSRFSGSGSGTQYSLKINSLQPEDFGSYYCQHFWSTPRTFGGGTKLELKRTVAAPSVFIFPPSDEQLKSGTASVVCLLNNFYPREAKVQWKVDNALQSGNSQESVTEQDSKDSTYSLSSTLTLSKADYEKHKVYACEVTHQGLSSPVTKSFNRGEC |
